# Laboratory results as given in patent US8372810B2, “Anti-tumor drug, medicament, composition, and use thereof” (Gene Signal International SA, priority 2007, dated 2013).
# “Also recorded” adds a separate entry of the source.
# Assays:
# HUVEC [1] = assay: In vitro angiogenesis of HUVEC induced by FGF2 and VEGF on Matrigel; type: cell-based, human
# Method: The purified proteins 497C-T2, 497C-T3, 497C-T4 and 497C-T5 were tested in vitro on angiogenesis of HUVEC induced by FGF2 and VEGF on Matrigel.
# 24 wells plates were prepared with 250 μL of BD Matrigel™/well and then incubated 30 minutes in incubator.
# HUVEC [2] = assay: Wound assay, migration of human endothelial cells; type: cell-based; conditions: 18 hours; 497C-T2 0.83 and 1.66 μM; 497C-T3 2.4 μM; 497C-T4 3.52 μM; 497C-T5 3.65 μM; C-terminal tail 4.92 μM
# Method: Cell migration was tested by the wound assay described by Sato and Rifkin (J Cell Biol. 1988; 107:1199) with few modifications. HUVEC grown in growth medium EGM-2MV (Cambrex) were seeded in 24-well plates at 80 000 cells per well in 500 μL of growth medium and grown to confluence at 37° C. in a humidified atmosphere containing 5% CO2. Cells were scrapped with a plastic tip on one line only. After wounding, the culture medium was changed for fresh medium (control, FIG. 3a) or fresh medium supplemented with: • FIG. 3b: 497C-T2 20 μg/mL (0.83 μM) • FIG. 3c: 497C-T2 40 μg/mL (1.66 μM) • FIG. 3d: 497C-T3 48 μg/mL (2.4 μM) • FIG. 3e: 497C-T4 60 μg/mL (3.52 μM) • FIG. 3f: 497C-T5 61 μg/mL (3.65 μM) • FIG. 3g: C-terminal tail 63 μg/mL (4.92 μM)
# After 18 hours of culture, cells were observed and photographed under the inverted microscope (Analysis, Olympus, Rungis, France).
# CHO = assay: Proliferation of other cell lines: CHO; type: cell-based; conditions: even at high concentration
# tumor cell line Calu-6 = assay: Proliferation of other cell lines: Calu-6; type: cell-based, human; conditions: even at high concentration
# NCI H460 human tumor = NCI H460 human tumor xenograft in Swiss Nude mice, tumor growth; type: in vivo; set-up: key to MRTV D28 / MRTV D12 / MRTV D14 / MRTV D16 / MRTV D18 / MRTV D20 / MRTV D22 / MRTV D24 / MRTV D26: ratio of mean tumor volume at day t to volume at injection (D12); conditions: for MRTV D12: reference day
# Method: NCI H460 cells were cultured as adherent cells in complete RPMI 1640 medium (Ref. CM1RRM08-01, batch No. 623615, Eurobio, France) containing 2 mM L-Glutamine, adjusted to 4.5 g/L glucose (Ref. G7528, batch No. 033K0121, Sigma, France) and supplemented with 10 mM HEPES (Ref. H0887, batch No. 113K2338, Sigma, France), 1.0 mM sodium pyruvate (Ref. CSTVAT00-0U, batch No. 520818, Sigma, France) and 10% fetal calf serum (FCS; Ref. CVFSVF00-01, batch No. S13021, Eurobio, France) under a 37° C., 5% CO2 humidified atmosphere. They were amplified in 75 cm^2-flasks to reach 90×10^6 cells.
# At D0, NCI H460 cells (human lung carcinoma) were collected from 75 cm^2-flasks by removing the medium and adding 3 ml of trypsine-EDTA (Ref. CEZTDA00-0U, batch No. 633920, Eurobio, France). After 5 min of incubation at 37° C., cells were detached from the plastic and the enzymatic reaction was stopped by adding 3 ml of RPMI 1640 medium containing 10% fetal calf serum. Cells were then centrifuged at 700 g for 5 min at room temperature. They were resuspended in serum-free RPMI 1640 culture medium containing L-Glutamine (2 mM), glucose (4.5 g/l), sodium pyruvate (1 mM) and buffered with HEPES (10 mM). Cells were counted and the number of viable NCI H460 cells was >99%. The number of cells was then adjusted to 25.10^6 cells/ml in serum-free medium.
# NCI H460 cells (5.10^6 cells/mouse in 200 μL of serum-free medium) were then implanted subcutaneously in the right flank of each mouse.
# At D12 post-implantation of the NCI H460 cells, the thirty mice were randomized into six groups of 5 mice. Tumor volumes had reached 228 to 468 mm^3 and mean tumor volumes were not statistically different between groups after randomization.
# All solutions were injected IP.
# Animals have been observed daily.
# • Tumor growth curves were drawn using the mean tumor volumes (MTV), • Mean Relative tumor volume (MRTV) was calculated as the ratio between the MTV at time t and the volume at the time of injection (t=D12), • Tumor growth inhibition (T/C, %) was evaluated as the ratio of the median tumor volumes of treated groups versus vehicle group.
# Statistical analyses of tumor volumes (V), time to reach ‘V’, tumor-doubling time (DT), relative tumor volume (RTV) and tumor growth inhibition (T/C) were performed for all groups. Data are expressed as mean±SD. Groups of data were normally distributed. Univariate analysis were performed to assess differences between groups. Statistical significance was then determined using the Student's t test. A P<0.05 was considered as statistically significant. The Statistical analysis was performed using XLSTAT (Addinsoft, France).
# [3] = Body weight and toxicity monitoring of mice bearing CALU-6 tumors; conditions: CALU-6 bearing Nude mice, 497C-T2 10 mg/kg IP
# Method: Injections in groups 1, 2, 3 and 4 were performed according to the schedules Q2DX8, i.e. 1 quantity every two days, eight times.
# CDDP was resuspended in sterile physiological serum at a concentration of 0.5 mg/mL and injected IP at a concentration of 5 mg/kg at a volume of 10 mL/kg, according to the treatment schedule Q2DX8.
# Ketamine/Xylazine (80 mg/kg-12 mg/kg; Ref. K-113, Sigma, France) was used to anaesthetize the animals before sacrifice by cervical dislocation.
# [4] = 497C-T2 10 mg/kg IP Q1DX16 (G4)
# [5] = 497C-T2 10 mg/kg IP Q1DX16 (G4), 10 mg/kg
# [6] = 497C-T2 10 mg/kg IP Q1DX16 (G4), listed as 497C-T2-Batch A
# [7] = 497C-T2 10 mg/kg IP once daily Q1DX16 (G4)
# [8] = IP Q2DX8, CDDP 5 mg/kg (G2), 497C-T2 10 mg/kg (G3), 497C-T2 10 mg/kg + CDDP 5 mg/kg (G5)
# [9] = IP Q2DX8, CDDP 5 mg/kg (G2), 497C-T2 10 mg/kg (G3), 497C-T2 10 mg/kg + CDDP 5 mg/kg (G5), listed as 497C-T2-Batch A
molecule,measurement,setting,value
"497C-T2: entire LEL domain of protein 497C, SEQ ID NO:3 (112 amino acids); as produced SEQ ID NO:8, with N-terminal His-Tag and C-terminal tail, 24 kD (protein, listed as Homo sapiens, X: residue not identified in the source) MHHHHHHSSGLVPRGSGMKETAAAKFERQHMDSPDLGTDDDDKISGFVFRHEIKDTFLRTYTDAMQTYNGNDERSRAVDHVQRSLSCCGVQNYTNWSTSPYFLEHGIPPSCCMNETDCNPQDLHNLTVAATKVNQKGCYDLVTSFMETNMGIIAGDRASPQPWRYRIRILAPSTSLRPHSSTTTTTTXIRLLTKPERKLSWLLPPLSNN","anti-angiogenic activity, capillary tube formation","HUVEC [1]; 497C-T2 0.27-2 μM, 497C-T3 […], 497C-T4 3.18 μM, 497C-T5 3.35 μM, C-terminal tail 4.14 μM",inhibited in vitro angiogenesis in a dose-dependent manner
same,inhibition of in vitro angiogenesis,HUVEC [1]; at 270 nM,small inhibition
same,inhibition of in vitro angiogenesis,HUVEC [1]; at 540 nM,more than 50%
same,potency relative to anti-VEGF mAb and/or VEGF receptor (KDR)-based peptides,HUVEC [1]; comparison with literature (Binetruy-Tournaire 2000),at least 200 fold
same,IC50,"HUVEC [1]; dose-response study, read-out: IC50, inhibition of in vitro angiogenesis",< 540 nM
same,inhibition of endothelial cell migration,HUVEC [2],inhibited human endothelial cells migration in a dose dependent manner
same,anti-proliferative effect,CHO,without any detectable anti-proliferative effect
same,anti-proliferative effect,tumor cell line Calu-6,without any detectable anti-proliferative effect
same,MTV at D14,NCI H460 human tumor; [4],468.85 mm^3
same,MTV at D24,NCI H460 human tumor; [4],2289.22 mm^3
same,T/C at D14 (treated/vehicle tumor volume ratio),NCI H460 human tumor; [4],46.90%
same,T/C at D24 (treated/vehicle tumor volume ratio),NCI H460 human tumor; [4],71.04%
same,DT (doubling time of tumor volume),NCI H460 human tumor; [5],5.9 ± 1.21 days
same,MTV at D28,NCI H460 human tumor; [5],3167±1681 mm^3
same,T/C at D28 (treated/vehicle tumor volume ratio),NCI H460 human tumor; [5],71%
same,DT (doubling time of tumor volume),NCI H460 human tumor; [6],5.9 days
same,MTV at D28,NCI H460 human tumor; [6],3167.34 mm^3
same,T/C at D28 (treated/vehicle tumor volume ratio),NCI H460 human tumor; [6],71.32%
same,MRTV D14,NCI H460 human tumor; [7],1.08
same,MRTV D16,NCI H460 human tumor; [7],1.00
same,MRTV D18,NCI H460 human tumor; [7],1.69
same,MRTV D20,NCI H460 human tumor; [7],2.63
same,MRTV D22,NCI H460 human tumor; [7],3.08
same,MRTV D24,NCI H460 human tumor; [7],3.08
same,MRTV D26,NCI H460 human tumor; [7],4.89
same,MRTV D28,NCI H460 human tumor; [7],6.76
same,DT (doubling time of tumor volume),NCI H460 human tumor; [8],4.08 ± 1.4 days
same,MRTV D14,NCI H460 human tumor; [8],1.37
same,MRTV D16,NCI H460 human tumor; [8],1.70
same,MRTV D18,NCI H460 human tumor; [8],2.46
same,MRTV D20,NCI H460 human tumor; [8],2.81
same,MRTV D22,NCI H460 human tumor; [8],3.30
same,MRTV D24,NCI H460 human tumor; [8],3.22
same,MRTV D26,NCI H460 human tumor; [8],5.80
same,MRTV D28,NCI H460 human tumor; [8],7.37
same,MTV at D14,NCI H460 human tumor; [8],571.00 mm^3
same,MTV at D24,NCI H460 human tumor; [8],1955.02 mm^3
same,MTV at D28,NCI H460 human tumor; [8],2482±2075 mm^3
same,T/C at D14 (treated/vehicle tumor volume ratio),NCI H460 human tumor; [8],57.12%
same,T/C at D24 (treated/vehicle tumor volume ratio),NCI H460 human tumor; [8],60.67%
same,T/C at D28 (treated/vehicle tumor volume ratio),NCI H460 human tumor; [8],56%
same,DT (doubling time of tumor volume),NCI H460 human tumor; [9],4.08 days
same,MTV at D28,NCI H460 human tumor; [9],2481.61 mm^3
same,T/C at D28 (treated/vehicle tumor volume ratio),NCI H460 human tumor; [9],55.88%
same,anti-tumoral activity,"NCI H460 human tumor; NCI H460, monotherapy (G3, G4) or combined with CDDP (G5, G6)",moderate anti-tumoral activity
same,MRTV D12,NCI H460 human tumor; [7],1.00
same,MRTV D12,NCI H460 human tumor; [8],1.00
same,toxicity during the course of the treatment,[3],No toxicity was observed; also recorded: not toxic
